The DeepSol protein solubility set

assay: soluble on expression in E. coli; label from the status in PepcDB or PDB records

| Sequence | soluble on expression in E. coli |
| --- | --- |
| GSYTLSEKDLKELDSIRDSFQCMNEPLDNDQQASTLAKKEHNPTDILNVMDITMRRLVKMAKRLGAFNEISEAGKFSLLKGGMIEMLTIRGVTVFNADKGVWQTPVDGHSQISFNMFDKLRPDIKDTQKKGFLHFFNLLHSDVRKNDLAIDIIVLMVLFDSKREGLVSQQDKETVEKLHRNYESLLHRYLYSIHKEEAEQRFASIPKALVALRKVAENAVTLFLGAGNTTEAASLPKEFFATNY | soluble |
| GVEFMAGYYDTKNQALNPVSRTERPYPIVTVQNYVEKAIKEGRIQMNVEIEAFTTDIRMIVIGNVFEWCLRNGEADFEGNMVRSLGKYLDSTLD | not soluble |
| GVEITEGVTVTAKGNTEGNTADLAIDGDLSTYWESSNDYKWIEVDLGGIYELSKIEIFNKDEAVYKYNIYASEDGENFNKIAYKNNDNVSDSNGNMHTIDNVRAGKIRIDVVQNSNSDRVNIAEINVFGKNTGESLPEVKKIATSNFSETPWATEYEKFNSDSAYANEKTLNEIKNLVGRVIGREFKDKFIFEIRDQLNGNDVFEVSDSGDGKVLIKGNNGVSLASGFNYYLKNYCNVSYNPIMGSNLKMPETMPSVGERVVIDTPYEHRYALNFCTYSYTMSFWDWDQYEEFLDWCAMNGVNLVLDIIGQEEVLRRTLNEFGYSDEEVKEFISGPAYFAWFYMQNMTGFGGPLPNDWFEQRAELGRKMHDRMQSFGINPVLQGYSGMVPRDFKEKNQEAQTISQGGWCGFDRPDMLKTYVNEGEADYFQKVADVFYEKQKEVFGDVTNFYGVDPFHEGGNTGDLDNGKIYEIIQNKMIEHDNDAVWVIQNWQGNPSNNKLEGLTKKDQAMVLDLFSEVSPDWNRLEERDLPWIWNMLHNFGGRMGMDAAPEKLATEIPKALANSEHMVGIGITPEAINTNPLAYELLFDMAWTRDQINFRTWTEDYIERRYGKTNKEILEAWNIILDTAYKKRNDYYQGAAESIINARPGFGIKSASTWGHSKIVYDKSEFEKAIEIFAKNYDEFKDSDAFLYDFADILKQLLANSAQEYYEVMCNAYNNGNGEKFKFVSGKFLELIKLQERVLSTRPEFLIGNWIEDARTMLKDSDDWTKDLFEFNARALVTTWGSRNNADGGGLKDYSNRQWSGLTEDYYYARWEKWINGLQAELDGGAKAPNIDWFKMEYDWVNKKSDTDKLYPTEASNENLGELAKIAMESYSVTNMDKILGENES | soluble |
| GVSKEEYKDVETAKKEKEQLGELMEPALGYVVKVPVSSFENKKVDISDIEVITNGNLDDVPYKANSSKYNYPDIKTKDSSLQYVRSGYVIDGEHSGSNEKGYVYYKGNSPAKELPVNQLLTYTGSWDFTSNANLNNEEGRPNYLNDDYYTKFIGKRVGLVSGDAKPAKHKYTSQFEVDFATKKMTGKLSDKEKTIYTVNADIRGNRFTGAATASDKNKGKGESYNFFSADSQSLEGGFYGPKAEEMAGKFVANDKSLFAVFSAKHNGSNVDTVRIIDASKIDLTNFSISELNNFGDASVLIIDGKKIKLAGSGFTNKHTIEINGKTMVAVACCSNLEYMKFGQLWQQAEGGKPENNSLFLQGERTATDKMPKGGNYKYIGTWDAQVSKENNWVATADDDRKAGYRTEFDVDFGNKNLSGKLFDKNGVNPVFTVDPKIDGNGFTGKAKTSDAGFALDSGSSRYENVKFNDVAVSGGFYGPTAAELGGQFHHKSENGSVGAVFGAKQQVKK | soluble |
| GWSFEEQFKQVRQLYEINDDPKRKEFLDDLFSFMQKRGTPINRLPIMAKSVLDLYELYNLVIARGGLVDVINKKLWQEIIKGLHLPSSITSAAFTLRTQYMKYLYPYECEKKNLSTPAELQAAIDGNR | soluble |
| HHHHHHENLYFQGSMDALQLANSAFAVDLFKQLSEKEPLGNVLFSPIALSTSLSLAQVGAKGDTANEIGQVLHFENVKDVPFGFQTVTSDVNKLSSFYSLKLIKRLYVDKSLNLSTEFISSTKRPYAKELETVDFKDKLEETKGQINNSIKDLTDGHFENILADNSVNDQTKILVVNAAYFVGKWMKKFSESETKESPFRVNKTDTKPVQMMNMEATFSMGNIDSINSKIIELPFQNKHLSMFILLPKDVEDESTGLEKIEKQLNSESLSQWTNPSTMANAKVKLSIPKFKVEKMIDPKASLENLGLKHIFSEDTSDFSGMSETKGVALSNVIHKVSLEITEDGGDSIEVPGARILQHKDELNADHPFIYIIRHNKTRNIIFFGKFSSP | soluble |
| HHHHHHESDDDDKLAFGAIQLDGDGNILQYNAAEGDITGRDPKQVIGKNFFKDVAPCTDSPEFYGKFKEGVASGNLNTMFEYTFDYQMTPTKVKVHMKKALSGDSYWVFVKRV | soluble |
| HHHHHHSSGLVPRGSHMMNPFHDLEPGPNVPEVVYALIEIPKGSRNKYELDKETGLLKLDRVLYTPFHYPVDYGIIPRTWYEDGDPFDIMVIMREPTYPLTIIEARPIGLFKMIDSGDKDYKVLAVPVEDPYFKDWKDISDVPKAFLDEIAHFFKRYKELEGKEIIVEGWEGAEAAKREILRAIEMYKEKFGKKE | soluble |
| HLDAIQNFGAMDILCTDKTGTLTQDKIVLENHTDVSGKVCERVLHAAWLNSHYQTGLKNLLDTAVLEGVELDAARGLAERWQKVDEIPFDFERRRMSVVVKEDDAAHQLICKGALQEILNVSTQVRYNGDIVPLDDTMLRRIRRVTDTLNRQGLRVVAVATKYLPAREGDYQRADESDLILEGYIAFLDP | not soluble |
| HLQGLSAAVLDLTGLAQKGGTVVSHIRLAPSGTANGPVRLDWQQADAAILCDPVAAVAPDSLGALRRDHTRTTVNTYVAPVSDFTRNPDAPLRADALLAKIRHAAGEHVAALDAHAAAQALFGDSILSNMFMLGHAWQRGDVPLALAALARAIELNGVAVAANRAAFDAGRLAAHE | not soluble |
| HMIFAKGHGTQNDFVLLPDVDAELVLTAARVAALCDRRKGLGADGVLRVTTAGAAQAVGVLDSLPEGVRVTDWYMDYRNADGSAAQMCGNGVRVFAHYLRASGLEVRDEFVVGSLAGPRPVTCHHVEAAYADVSVDMGKANRLGAGEAVVGGRRFHGLAVDVGNPHLACVDSQLTVDGLAALDVGAPVSFDGAQFPDGVNVEVLTAPVDGAVWMRVHERGVGETRSCGTGTVAAAVAALAAVGSPTGTLTVHVPGGEVVVTVTDATSFLRGPSVLVARGDLADDWWNAMG | soluble |
| IHTMWKGTISFGLVNIPIKLHAATENKDVRLRQLHKECKTPINYLKVCPNCDAEVEPNDIVKAYEYAKNKFVELDEEELASLKKEQEDKAVEIIDFVKLQEIDPIYFDKSYYMSPGDGGGKAYTLLREALAESEKIGVAKIIIRAKEHLAVIRVYKNTLLMETIHFPDEVRAVDQVPNVPE | not soluble |
| IKNFSYGVKFVLSDAQQKILKYNNPDKSLSNPYYEGQKLGEIWGYKTIGIAQSDEEMNQHLANAKQPMGQKWAAGDIMYADLDNSGSVDQGNYKVGDSGDWQIIGNNTPRFNYGITIDAAWKGLDFRAFVQGIGKRDYWLNGPYFWGFSGGGEWASAGFKEHWDFWRPEGDPLGANTNSYFARVIRGTSKNQQRQTRYLQDASYWRLKNIQIGYTLPKVWTKKAGMESVRVYVSGDNLLTVSDITGVFDPENLGTQWTDPGKVYPLQKVIAIGLTVNF | not soluble |
| INKVPVTVFLWRPEKYWPADFVSENVKNFGYTVEEFTSGKVLYGNIVHPDDFERVERELSRRIEEDYVDFSQEYRILTKSGEARWVEERTFIEADENGVVKYLKGIILDIT | not soluble |
| IRSIWENNGFGLMSSKTMTDFDYWISDFEKIGASQKEAEQLIVKAIEIAIDANARNYNYINAILKDWEQRGFKSVEEREA | soluble |
| ITKAINYMAKRRIGALLTIERDTGMGDYIETGIPLNAKVSSELLINIFIPNTPLHDGAVIMKNNEIAAAACYLPLSESPFISKELGTRHRAAVGISEVTDSLTIIVSEETGGVSVAKNGD | not soluble |
| KEFFLAKHAEQKKRHHKYNDTEYNLEPNVKGSPGGLRDIQTILWVARRQYGTLNLHALAGEGFLLGSENALLASSQEFLWKVRYALHMLAGRSEDRLLFDYQVRIAGLLGYEDNDAKLAIERFMQKYYRVVMSIAELSDLIIQHFEEVILSDDDGTPQPINSRFQLHDGYIEATNPNVFRRTPFAMLEIFVLMAQHPEIKGVRADTIRLL | not soluble |
| KFGELREISGNQYVNEVTNAEKDLWVVIHLYRSSVPMCLVVNQHLSVLARKFPETKFVKAIVNSCIEHYHDNCLPTIFVYKNGQIEGKFIGIIECGGINLKLEELEWKLSEVGAIQSDLEEN | soluble |
| KGHAWTHSAGEPLRVVAIQGNIAQELKWDPNQVRAQLDLYRDLSLPQQDVDLIVWPETAVPILQDMASGYLGAMGQVADEKNAALITGVPVRERLADGKSRYFNGITVVGEGAGTYLKQKLVPFGEYVPLQDLLRGLIAFFDLPMSDFARGPADQPLLKAKGYQIAPYICYEVVYPEFAAALAAQSQVLLTVSNDTWFGTSIGPLQHLQMAQMRALESGRWMIRATNNGVTGLIDPYGRIVRQIPQFQQGILRGEVIPMQGLTPYLQYR | not soluble |
| KGTLYLVATPIGNLEDVTFRAIRTLKEADQIAAEDTRQTKKLLNHFDIATKLVSYHEHNKETMGKRLIDDLIEGRTIALVSDAGMPAISDPGYELVVSAIKEGIAVIPIPGA | not soluble |
| KHHHHHHIKPGALCVIDTPEGKGTGFFSGNDIVTAAHVVGNNTFVNVCYEGLMYEAKVRYMPEKDIAFITCPGDLHPTARLKLSKNPDYSCVTVMAYVNEDLVVSTAAAMVYGNTLSYAVRTQDGMSGAPVCDKYCRVLAVHQTNTGYTGGAVIIDPTDFHPV | soluble |
| KHLPQILCEAMTREAETMAMPDPKLPEEINRTFMQTYADVEQLVPPAKVDRHGSVCIYLPSPASSEEAEANLSWEEQILQDLPRFIIGLQKRGYAPSDIAILVRKTYQAREIARAMLSYQPEPDEEDYPLIPMSDESLSLSGAASIRFLSNLLKFISRPQSDALRQIAYLSYEELRKEKGLAPTEEGNFSAAELAEFANLRRRSLYELAEGLVSFFHSYLPEREMPYLIAWLDLINDFGHERSADLHSFLQWWDETGHAKSRISSAPNSQAVTLMTIHKAKGLGFRVVLIPFLDWNLDDEAAHRHILWCKIDPARSPFNILPVVPIRYKKEMAQTMFATDYFRERADILLDNLNLLYVATTRAKDEMHLWLHPSQKPESLSTVGDLIHLALASLDENKTESDMYCWGSPVISARQKTTDHPSSGLPFTLPKGSLSAVADRLAIRPEGSEFYRRHKPLYHGHVMHRILADIVLAKDIEPALERYVSGGIVTRDEAIELVDRLSVVTSDSRLSRWFDGSGRVLNEQDILLPEGEQRRPDRIILYDDHTDIVDYKFGAVRKVHHAQMENYIRLLVSMGYPSVRGYLWYLPNNEIVGVRSVRGITRSKGEERKEGKGERGIERKAK | not soluble |
| KLGAPVKKAILEALSERDQTADICKDSKGNIEPDTQLRDTELVAFPDHLTLPLPVNYDKEPDLSKLLPLVKAHCEAYLKAEVLPHVADAWIDYSKTKVGYEIPINRHFYIYEPPRPLEEIKAEIVQLEQEIMQMLGGLSA | not soluble |
| KNKKVILFAPTFRGNGHRTAHYPFFKINFARLASYCEEHQATVLFKMHPFVRNKLNIPAIYSKYFLDISNYREVNDVLFITDILISDYSSLIYEFSVFKKPMLFYAFDLEDYIYTRDFYEPYETFVPGKIVKIFDELILALENNDFELEKVKPFLNKNFKYKDGKSSERLVKDLFNKFFQ | not soluble |
| KPYTIDKANSSVWFEVKHFKFNETRGVFDSFDGKIDADPNTKALNVFEGKIDIKSINTRNKKRDDHLKTAEFFDVVKYPKGSFKMTKYEDGKIHGDLTLHGVTKPVVLEAKIQAPLQNPMNKKEFMVLQAEGKINRKDFGIGKTFSDAVVGDEVKIELKLEAYA | soluble |
| KRLQKKIDNGELDSFPEVKEVDVECCGQHEVCERDSLLAAVSKQIEYYDDEELDTFIGRAPEDYTPEEADKFRDVFYTMQDTDVAGWVRSLQLRGISLPDEIKDEVFLVVGERRIH | not soluble |
